# The nanobody polyreactivity screen of Harvey et al. (2022)
# Test: yeast display, Sf9 membrane polyspecificity reagent, FACS + sequencing; frameworks hold sequencing errors
# How it was run: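 In a synthetic yeast display library (Saccharomyces cerevisiae BJ5465), nanobody expression was induced with galactose for 36–48 hours. FACS gates were set low and high (top ~1%) using anti-HA fluorescence for expression and streptavidin fluorescence for binding of the Sf9 membrane reagent. Each polyreactivity label is drawn from the gate of origin.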
row,Sequence,polyreactivity (PSR sort gate)
1,QVQLVESGGGLVQAGGSLRLSCAASGSIIGRNVMGWYRQAPGKERELVAVITGSGGGTYYADSVKGRFTISRDNAKNTVYLQMNSLKPEDTAVYYCAARKRGTFTYDYWGQGTQVTVSS,high polyreactivity
2,QVQLVESGGGLVQAGGSLRLSCAASGSIIGRYTMGWYRQAPGKERELVAAISRSGGSTYYADSVKGRFTISRDNSHNTVYLQMNSPKPEDTAVYYCAKRTYTPRVERLYSSYDYWGQGTQVTVSS,high polyreactivity
3,QVQLVESGGGLVQAGGSLRLSCAASGSIIGSYVMGWYRQAPGKERELVATITNGGSTYYADSVKGRFTISRDNAKNTVYLQMNSLKPEDTAVYYCAADGRGDLYVWPGIGGDYWGQGTQVTVSS,low polyreactivity
4,QVQLVESGGGLVQAGGSLRLSCAASGSIIGVNAMGWYRQAPGKERELVAAISSTGGSTYYADSVKGRFTISRDNAKNTVYLQMNSLKPEDTAVYYCAAVLIDPDSNLETGGIFDYWGQGTQVTVSS,low polyreactivity
5,QVQLVESGGGLVQAGGSLRLSCAASGSIIHNYDMGWYRPAPGTETEFVAAINWSGGNTHYADSVKGRFTISRDNAKNTFYLQMNSLKPEDTAVYYCAADSGFDTAPYDYWGQGTQVTVSS,low polyreactivity
6,QVQLVESGGGLVQAGGSLRLSCAASGSIIHVNAMGCYRQAPGKERELVAGISDGGSTYYADSVKGRFTISRDNAKYTVYLQMNSLKPEDTAVYYCAAESEQWYSYVLSYDWEYDYWGQGTQVTVSS,low polyreactivity
7,QVQLVESGGGLVQAGGSLRLSCAASGSIIIGNAMGWYRPAPGKERELVAVINGSDGTTYYADSVKGRFTISRDTAKNTVYLQMNSLKPEDTAVYYCNADFIDPSVYDYNYWGQGTQVTVSS,low polyreactivity
8,QVQLVESGGGLVQAGGSLRLSCAASGSIIKPYDMGWYIQAPGKERELVAAIRSSGGRTNYADSVKGRFTISRDNAKNTVYLQMNSLKPEDTAVYYCAAGYVSYWYYRYDYWGQGTQVTVSS,high polyreactivity
9,QVQLVESGGGLVQAGGSLRLSCAASGSIILYYAIGWYRQAPGIERELVAGIRRGGRTNYADSVKGRFTISRDNAKNTVYLQMNSLKPEDTAVYYCAKGGYWGQGSQVTVSS,high polyreactivity
10,QVQLVESGGGLVQAGGSLRLSCAASGSIIPGYTMGWYRQAPGKERELVAAITSSGGSTYYADSVKGRFTISRDNAKNTVYLQMNSLKPEDTAVYYCNAPFWGYRTSFSYPVVQRFDYWGQGTQVPVSS,low polyreactivity
11,QVQLVESGGGLVQAGGSLRLSCAASGSIIPRNAMGWYRQAPGKEMELVAAIRKSGGSTYYADSVKGRFTFCRDIAKNTVYLQMNSLKPEDTAVYYCAKPYYVPSWLSPIYNYWGQGTQVTESS,low polyreactivity
12,QVQLVESGGGLVQAGGSLRLSCAASGSIISDYALGWYRPAPGKERELVAGISSGGGTTYADSVKGRFTISRDNAKNTVYLQMNSLKPEDTAVYYCNKQDQPVGRSGYPYGYDYWGQGTQVTVSS,low polyreactivity
13,QVQLVESGGGLVQAGGSLRLSCAASGSIISNYVKGWYRQAPGKERELVAAITRRGGRTYYADSVKGRFTISRDNAKNTVYLQMNSLKPEDTAVYYCAAQTISYSYPIIRYDYWGQGTQVTVSS,low polyreactivity
14,QVQLVESGGGLVQAGGSLRLSCAASGSIISRNAMGWYRQAPGKEREFVAAITRSGGSTSYADSVKGRFTISRDNAKNTVYLQMNSLKPEDTAVYYCSASFARSATAYLFDYWGQGTQVTVSS,high polyreactivity
15,QVQLVESGGGLVQAGGSLRLSCAASGSIISYYAMGWYRQAPGKERELVATITSGGITYYADSVKGRFTISRDNAKNTVYLQMNSLKPEDTAVYYCNARYPHGYSSYYRFGYWGQGTQVTVSS,high polyreactivity
16,QVQLVESGGGLVQAGGSLRLSCAASGSIITYYAMGWYRQAPGKERELVAAISSGGSTYYADSVKGRFTISRDNAKSTVYLQMNRLKPEDSAVYYCNADLLDYWSFILFDYWGQGSQVTVSS,high polyreactivity
17,QVQLVESGGGLVQAGGSLRLSCAASGSIIVGYAMGWYRQAPGKEREMVALISSDCDTYYADSVKGRFTISRDNAKNTVYLQMNSLKAEDTAVYYCNADLYGGGDKSVISGLNGEYEYWGQGTQVTVSS,low polyreactivity
18,QVQLVESGGGLVQAGGSLRLSCAASGSIIYKYAMGWYRQAPGKERELVAAINSGGRTYYADSVKGRFTISRDNAKNTVYLQMNSLKPEDTAVYYCNAGTYYPGRYDYWGQGTQVTVSS,low polyreactivity
19,QVQLVESGGGLVQAGGSLRLSCAASGSIIYPYAMGWYRQAPGKERELVASINWRTGSTYYADSVKGRFTISRDNAKNTVYLQMNSLKPEDTAVYYCAARLDYYTGFDYWGQGTQVTVSS,low polyreactivity
20,QVQLVESGGGLVQAGGSLRLSCAASGSIIYRNVMGWYRQAPGKERELVAAISSNGGRTYYADSVKGRFTISRDNAKNTVYLQMNSLKPEDTAVYYCAADTYPGTYYWGQGTQVTVSS,high polyreactivity
21,QVQLVESGGGLVQAGGSLRLSCAASGSIIYRYAMGWYRQARGKERELVAAISTTGGRTYYADSVKGRFTISRDNAKNTVYLQMNSLKPEDTAVYYCNTYGSGTHSTGYDYWGQGTQVTVSS,low polyreactivity
22,QVQLVESGGGLVQAGGSLRLSCAASGSIIYTNAMGWYRQAPGKERELVAAITGTTTTNYADSVKGRFTISRDNAKNTVYLQKTSLKPEDTAVYYCNADYDRSRVYYSVELYDYWGQGTQVTVSS,low polyreactivity

row,Sequence,polyreactivity (PSR sort gate)
1,QVQLVESGGGLVQAGGSLRLSCAASGSILAGNTMVSYRQAPGKERELVATISKRGGSTYYADSVKGRFTISRDNAKNTVYLQMNSLKPEDTAVYYCAAALRAKHYYWGQGTQVTVSS,high polyreactivity
2,QVQLVESGGGLVQAGGSLRLSCAASGSILAGYAMGWYRQAPGKERELVAAISDSGGNTYYADSVKGRFTISRDTAKNTVYLQMNSLKPEDTAVYYCAADLGYGPLRELEYWGQGTQVNVSS,low polyreactivity
3,QVQLVESGGGLVQAGGSLRLSCAASGSILAHYAMGWYRQAPGKERELVAGISSGGSTNYADSVKGRFTISRDNAKNTVYLQMNSLKPEDTAVYYCNADQDFLFIGYLFDYWGQGTQVTVSS,low polyreactivity
4,QVQLVESGGGLVQAGGSLRLSCAASGSILARNAMGWYRQAPGKERELVAAISNSGSTNYADSVKGRFTISRDNAKNTVYLQMNSLKPEDPAGYYCAKDADHGWFEYDYWGQGTQVTVSS,low polyreactivity
5,QVQLVESGGGLVQAGGSLRLSCAASGSILDHYAMGWYRQAPGKEREFVAAISIRGGSTYYADSVKGRFTISRDNAKNTVYLQMNSLKPEDTAVYYCNALSNYVYRRNDYWGQGTQVTVSS,low polyreactivity
6,QVQLVESGGGLVQAGGSLRLSCAASGSILDPYVMGWYRQSPGKEWELVAAITQSGGSTYYADSVKGRFTISRDNAKNTVYLQMNSLKPEDTAVYYCATTRPIRRTSARYNYWGQGTQVTVSS,low polyreactivity
7,QVQLVESGGGLVQAGGSLRLSCAASGSILDTNAMGWYRQAPGKERELVARIDIDGSTNYADSVKGRFTISRDNAKNTVYLQMNSLKPEDTAVYYCNKDHSSYGASGYDYWGQGTQVTVSS,low polyreactivity
8,QVQLVESGGGLVQAGGSLRLSCAASGSILEIYAMGWYRQAPGKEREFVASISWDVSSTYYADSVKGRFTISRDNAKNTVYLQMNSLKPEDTAVYYCATSLVWGLYDWYYDLSAAFDYWGQGTQVTVSS,low polyreactivity
9,QVQLVESGGGLVQAGGSLRLSCAASGSILESIVMGWYRQAPGKERELVASISSSGDSSYADSVKGRFTISRDNAKNTVYLQMNSLKPEDTAVYYCAADRWYWTYALYYWGQGTQVTVSS,low polyreactivity
10,QVQLVESGGGLVQAGGSLRLSCAASGSILESNVMGWYRQAPGKERELVASISSSGDSTYADSVKGRFTISRDNAKNTVYLQMNSLKPEDTAVYYCAADAPGADFDYWGQGTQVTVSS,low polyreactivity
11,QVQLVESGGGLVQAGGSLRLSCAASGSILFNNAMGWYRQAPGKERELVAAIRSNGGNTYYADSVKGRFTISCDNAKNTVYLQMNSLKPEDTAVYYCAAEKTLYGGGGWTRWFHYTYGYWGQGTQVTVSS,high polyreactivity
12,QVQLVESGGGLVQAGGSLRLSCAASGSILFSYAMGWYIQAPGKEREFVAAITFSGGRTYYADSVKGRFTISRDNAKNTVYLQMNSLKPEDTAVYYCAASYLLIYTQGYRAEYEYWGQGTQVTVSS,low polyreactivity
13,QVQLVESGGGLVQAGGSLRLSCAASGSILFSYAMGWYRQAPGKERELVAAINRGDGNTYADSVKGRFTISRDNAKNTVYLQMNSLKPEDTAVYYCNADLFPGYVSYPEYDYWGQGTQVTVSS,low polyreactivity
14,QVQLVESGGGLVQAGGSLRLSCAASGSILGGNAMGWYRQAPGKERELVAANTFSGGGTYYADSVKGRFTISRDNAKNTVYLQMKSLKPEDTAVYYCNADYKSTVFRYSGSRNYWGQGTQVTVSS,low polyreactivity
15,QVQLVESGGGLVQAGGSLRLSCAASGSILGHYAMGWYRQAPGTERELVAAISWSGGSTYYADSVKGRFTISRDNAKNTVYLQMNSLKPEDTAVYYCNAAAILYTSDGSLYWYDYWGQGTQVTVSS,low polyreactivity
16,QVQLVESGGGLVQAGGSLRLSCAASGSILGINVMGWYRQAPGKERELVAAISWRGGRTYYADSVKGRFTISRDNAKNTVYLQMNSLKPEDTAVYYCAAYFYSTSYGADRGVDYWGQGTQVTVSS,high polyreactivity
17,QVQLVESGGGLVQAGGSLRLSCAASGSILGPYAMGWYRQAPGKERELVAANSQSGARTYYADSVKGRFTISRDNAKNTVYLQMNSLKPEDTAVYYCAAQSRKGGWSAYYYWGQGTQVTVSS,high polyreactivity
18,QVQLVESGGGLVQAGGSLRLSCAASGSILGQNAMGWSRQAPGKEREWVAAIRSSGGSTYYADSVKGRFTISRDNAKNTVYLQMNSRNPEDTAVYYCADDYYTSADYVDYYYWGQGTQVTVSS,low polyreactivity
19,QVQLVESGGGLVQAGGSLRLSCAASGSILGRYAMGWYRQAPGKERELVAAISYRGGSTYYADSVKGRFTISRDNAKNTVYLQMNSLKPEDTAVYYCATRDPAFYRRYDYWGQGTQVTVSS,high polyreactivity
20,QVQLVESGGGLVQAGGSLRLSCAASGSILGVYTMGWYRQAPGKERELVARIRLSGGSTYYADSVKGRFTISRDNAKNTVYLQMNSLIPEDTAVYYCAARYSRARFTDPYYYWGQGTQVTVSS,high polyreactivity
21,QVQLVESGGGLVQAGGSLRLSCAASGSILGYYVMGWYRQAPGKERELVAAISWSSGSTYYADSVKGRFTISRDNAKNTVYLQMNSLKPEDTAVYYCNASNVYFWFVTLEFDYWGQGTQVTVSS,low polyreactivity
